Several values for one entry are separate records, joined by “and”; a condition that tells them apart may be missing. Equal entries are not always repeated.

This experiment concerns the target M2 protein of human Influenza A virus A/WSN/33 (H1N1), wild type (Influenza A virus A/WSN/33 (H1N1)).

Consider “M2 protein of human Influenza A virus A/WSN/33 (H1N1), wild type (natural protein)”, for which the stoichiometry N was 4 and 2 and 3.

Values taken from publication PMC10622425.
